T1: B-cat-Halo (beta-catenin HaloTag fusion expressed in HEK293 cells) (UniProt P35222 1-781, HaloTag labelled with HaloTag NanoBRET 618 Ligand)
T1 sequence (looked up): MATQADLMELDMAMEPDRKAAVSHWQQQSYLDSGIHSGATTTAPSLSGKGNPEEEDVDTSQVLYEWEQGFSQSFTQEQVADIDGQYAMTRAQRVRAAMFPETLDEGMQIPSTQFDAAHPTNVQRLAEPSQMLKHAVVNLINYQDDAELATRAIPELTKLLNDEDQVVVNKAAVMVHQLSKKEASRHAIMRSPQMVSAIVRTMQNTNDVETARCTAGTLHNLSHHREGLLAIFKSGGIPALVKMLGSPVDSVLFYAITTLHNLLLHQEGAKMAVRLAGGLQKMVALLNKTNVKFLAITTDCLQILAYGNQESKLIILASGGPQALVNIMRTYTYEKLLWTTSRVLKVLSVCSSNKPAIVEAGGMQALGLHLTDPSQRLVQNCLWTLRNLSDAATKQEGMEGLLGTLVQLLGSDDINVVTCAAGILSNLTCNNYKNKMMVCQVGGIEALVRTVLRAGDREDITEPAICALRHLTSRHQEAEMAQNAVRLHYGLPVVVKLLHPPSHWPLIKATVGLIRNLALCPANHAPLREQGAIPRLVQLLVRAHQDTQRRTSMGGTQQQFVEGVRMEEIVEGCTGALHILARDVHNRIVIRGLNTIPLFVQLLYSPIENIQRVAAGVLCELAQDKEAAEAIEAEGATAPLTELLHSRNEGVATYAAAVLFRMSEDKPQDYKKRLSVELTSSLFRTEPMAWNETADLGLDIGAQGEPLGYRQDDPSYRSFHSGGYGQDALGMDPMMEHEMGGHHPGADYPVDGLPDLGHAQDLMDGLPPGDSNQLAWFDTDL

This is an account of results in US20240116985A1 (published 2024).

Starred links: 1 amine or outer side, 2 acyl side, 3 side chain; linkers in the order of their positions; H or OH if unused. Positions of bridges follow the written chain, without caps; N, C: chain ends. Non-standard residues stand in square brackets, D forms with d. Primed or numbered codes have the meaning given here. PyrS2″ = (S)-3-amino-1-((pent-4-en-1-yloxy)carbonyl)pyrrolidine-3-carboxylic acid (stapling residue), C=CCCCOC(=O)N1CC[C@@](N[*:1])(C(=O)[*:2])C1; PyrS2 = (S)-3-amino-1-((pent-4-en-1-yloxy)carbonyl)pyrrolidine-3-carboxylic acid, C=CCCCOC(=O)N1CC[C@@](N[*:1])(C(=O)[*:2])C1; B5(27) = 2-amino-2-(pent-4-en-1-yl)hept-6-enoic acid (two alkene side-chain arms), C=CCCCC(CCCC=C)(N[*:1])C(=O)[*:2]; MePpzAsn = (S)-2-amino-4-(4-methylpiperazin-1-yl)-4-oxobutanoic acid, CN1CCN(C(=O)C[C@H](N[*:1])C(=O)[*:2])CC1; F2PipNva = (S)-2-amino-5-(4,4-difluoropiperidin-1-yl)pentanoic acid, O=C([C@H](CCCN1CCC(F)(F)CC1)N[*:1])[*:2]; MorphAsn = (S)-2-amino-4-morpholino-4-oxobutanoic acid, O=C(C[C@H](N[*:1])C(=O)[*:2])N1CCOCC1; B5(3) = 2,2-bis(4-pentenyl)glycine (stitching residue), C=CCCCC(CCCC=C)(N[*:1])C(=O)[*:2]; Phe(4-(3-Py)) = N[C@@H](Cc1ccc(-c2cccnc2)cc1)C(=O)O; Nva(5-morpholino) = N[C@@H](CCCN1CCOCC1)C(=O)O; Bta = N[C@@H](Cc1csc2ccccc12)C(=O)O; αAllylPro = C=CC[C@@]1(C(=O)O)CCCN1; tBuAla = CC(C)(C)C[C@H](N)C(=O)O; 3Thi = N[C@@H](Cc1ccsc1)C(=O)O; hSer = N[C@@H](CCO)C(=O)O Some results are limits rather than exact numbers.

This assay addresses T1, B-cat-Halo (beta-catenin HaloTag fusion …). The assay is described as follows: cell-based or functional assay.
As to Ac-[αAllylPro]D[tBuAla][B5(3)]DD[Phe(4-(3-Py))]AFL[PyrS2″]F[Bta]Q-NH2 (staple 1-4, 4-11) [I-1489], the “NanoBRET Abs IC50” value stood at 9.2 µM.
On to Ac-[αAllylPro]D[tBuAla][B5(27)]DDAAFL[PyrS2][3Thi][Bta][hSer]-NH2 (staple 1-4, 4-11) [I-1499], for which the “NanoBRET Abs IC50” value turned out to be 6.4 µM.
Take Ac-[αAllylPro]D[tBuAla][B5(27)]DDAAFL[PyrS2][3Thi][Bta]W-NH2 (staple 1-4, 4-11) [I-1497]: the “NanoBRET Abs IC50” value was found to be 11.4 µM.
Consider Ac-[αAllylPro]D[tBuAla][B5(27)]DDAAFL[PyrS2][3Thi][Bta][dQ]-NH2 (staple 1-4, 4-11) [I-1500], for which the “NanoBRET Abs IC50” value worked out at 4.7 µM.
Turning to Ac-[αAllylPro]D[tBuAla][B5(27)]DDA[F2PipNva]FL[PyrS2][3Thi][Bta]Q-NH2 (staple 1-4, 4-11) [I-1502], the “NanoBRET Abs IC50” value is > 20 µM.
Regarding Ac-[αAllylPro]D[tBuAla][B5(3)]DDAAF[Nva(5-morpholino)][PyrS2″][3Thi][Bta]Q-NH2 (staple 1-4, 4-11) [I-1485], the “NanoBRET Abs IC50” value was found to be 25.8 µM.
Ac-[αAllylPro]D[tBuAla][B5(27)]DDAAFL[PyrS2][3Thi][Bta]S-NH2 (staple 1-4, 4-11) [I-1493]: the “NanoBRET Abs IC50” value was determined as 4.9 µM.
On to Ac-[αAllylPro]D[tBuAla][B5(3)]DDAAF[MePpzAsn][PyrS2″][3Thi][Bta]Q-NH2 (staple 1-4, 4-11) [I-1488], for which the “NanoBRET Abs IC50” value amounted to 30.3 µM.
Regarding Ac-[αAllylPro]D[tBuAla][B5(3)]DDAAF[F2PipNva][PyrS2″][3Thi][Bta]Q-NH2 (staple 1-4, 4-11) [I-1486], the “NanoBRET Abs IC50” value stood at 17.9 µM.
Take Ac-[αAllylPro]D[tBuAla][B5(3)]DDAAFL[PyrS2″][3Thi][Bta]N-NH2 (staple 1-4, 4-11) [I-1492]: the “NanoBRET Abs IC50” value is 7.3 µM.
Consider Ac-[αAllylPro]D[tBuAla][B5(3)]DDAAF[MorphAsn][PyrS2″][3Thi][Bta]Q-NH2 (staple 1-4, 4-11) [I-1487], for which the “NanoBRET Abs IC50” value came to 21.5 µM.
Turning to Ac-[αAllylPro]D[tBuAla][B5(27)]DDA[Nva(5-morpholino)]FL[PyrS2][3Thi][Bta]Q-NH2 (staple 1-4, 4-11) [I-1501], the “NanoBRET Abs IC50” value was > 20 µM.
As for Ac-[αAllylPro]D[tBuAla][B5(3)]DD[MePpzAsn]AFL[PyrS2″][3Thi][Bta]Q-NH2 (staple 1-4, 4-11) [I-1484], the “NanoBRET Abs IC50” value is > 20 µM.
As to Ac-[αAllylPro]D[tBuAla][B5(27)]DDAAFL[PyrS2][3Thi][Bta]T-NH2 (staple 1-4, 4-11) [I-1494], the “NanoBRET Abs IC50” value is 14.7 µM.
Ac-[αAllylPro]D[tBuAla][B5(27)]DDAAFL[PyrS2][3Thi][Bta]F-NH2 (staple 1-4, 4-11) [I-1496]: the “NanoBRET Abs IC50” value worked out at 9.4 µM.
For the molecule Ac-[αAllylPro]D[tBuAla][B5(27)]DDAAFL[PyrS2][3Thi][Bta]V-NH2 (staple 1-4, 4-11) [I-1495], the “NanoBRET Abs IC50” value came to 23.9 µM.
